Test results published in the MegaScale stability set (Tsuboyama et al. 2023).

B1: HEEH_KT_rd6_3632 (parent)
chain: DAEELIELVERALKEGREIILLGVRITSEEAGKWFIEWIRRFL

Variants of: B1
Assay: folding stability dG (cDNA display proteolysis); higher = more stable
Conditions: PBS, room temperature

| Variant | folding stability dG |
| --- | --- |
| LAEELIELVERALKEGREIILLGVRITSEEAGKWFIEWIRRFL [D1L] | 4.31 kcal/mol |
| DAEELIELVERALKEGREIILLGVRITSEEAFKWFIEWIRRFL [G32F] | 4.17 kcal/mol |
| DAEELIELVERALKEGREIILLGVRITSEEALKWFIEWIRRFL [G32L] | 4.17 kcal/mol |
| DAEELIELVERALKEGHEIILLGVRITSEEAGKWFIEWIRRFL [R17H] | 3.54 kcal/mol |
| DAEELIELVERALKEGVEIILLGVRITSEEAGKWFIEWIRRFL [R17V] | 3.79 kcal/mol |
| DAEEHIELVERALKEGREIILLGVRITSEEAGKWFIEWIRRFL [L5H] | 2.83 kcal/mol |
| DAEELIELVERALKEGREIILLGVRITSEEWGKWFIEWIRRFL [A31W] | 4.01 kcal/mol |
| DAEELIELVVRALKEGREIILLGVRITSEEAGKWFIEWIRRFL [E10V] | 3.99 kcal/mol |
| DAEELIELVDRALKEGREIILLGVRITSEEAGKWFIEWIRRFL [E10D] | 3.41 kcal/mol |
| DAEELIELVPRALKEGREIILLGVRITSEEAGKWFIEWIRRFL [E10P] | 2.64 kcal/mol |
| DAEELIELVSRALKEGREIILLGVRITSEEAGKWFIEWIRRFL [E10S] | 3.62 kcal/mol |
| DAEELIELVHRALKEGREIILLGVRITSEEAGKWFIEWIRRFL [E10H] | 3.78 kcal/mol |
| DAEELIELVGRALKEGREIILLGVRITSEEAGKWFIEWIRRFL [E10G] | 3.28 kcal/mol |
| DAEELIELVERALKEGRENILLGVRITSEEAGKWFIEWIRRFL [I19N] | 2.86 kcal/mol |
| DAEELIELVERALKEGREFILLGVRITSEEAGKWFIEWIRRFL [I19F] | 3.43 kcal/mol |
| DAEELIELVERALKEGREIILLGVRITSEEAGKWFIEWYRRFL [I39Y] | 3.43 kcal/mol |
| DAEELIELVERALKEGREIILLGVRITSEEAGKWFIEWKRRFL [I39K] | 2.56 kcal/mol |
| DAEELIELVERALKEGREIILLGVRITSEEAGKWFIEWARRFL [I39A] | 2.92 kcal/mol |
| DAEELIELVERALQEGREIILLGVRITSEEAGKWFIEWIRRFL [K14Q] | 3.56 kcal/mol |
| DAEELIELVERALDEGREIILLGVRITSEEAGKWFIEWIRRFL [K14D] | 3.25 kcal/mol |

| Variant | folding stability dG |
| --- | --- |
| DAEELIELVERALEEGREIILLGVRITSEEAGKWFIEWIRRFL [K14E] | 3.54 kcal/mol |
| DAEELIELVERALNEGREIILLGVRITSEEAGKWFIEWIRRFL [K14N] | 3.52 kcal/mol |
| DAEELIELVERALVEGREIILLGVRITSEEAGKWFIEWIRRFL [K14V] | 3.5 kcal/mol |
| DAEELIELVERALKHGREIILLGVRITSEEAGKWFIEWIRRFL [E15H] | 3.54 kcal/mol |
| DAEELIELVERALKEGREIILLGVRITSEEAGKWFIECIRRFL [W38C] | 3.94 kcal/mol |
| DAEELIELVERALKEGREIILLGVRITSEEAGKWFIESIRRFL [W38S] | 2.71 kcal/mol |
| DAEELIELVERALKEGREIILLGVRITSEEAGKWFIETIRRFL [W38T] | 2.79 kcal/mol |
| DAEELIELVEYALKEGREIILLGVRITSEEAGKWFIEWIRRFL [R11Y] | 3.15 kcal/mol |
| DAEELIELVEFALKEGREIILLGVRITSEEAGKWFIEWIRRFL [R11F] | 3.16 kcal/mol |
| DAEELIELVELALKEGREIILLGVRITSEEAGKWFIEWIRRFL [R11L] | 3.47 kcal/mol |
| DAEELIELVESALKEGREIILLGVRITSEEAGKWFIEWIRRFL [R11S] | 3.32 kcal/mol |
| DAEELIELVEHALKEGREIILLGVRITSEEAGKWFIEWIRRFL [R11H] | 3.45 kcal/mol |
| DDEELIELVERALKEGREIILLGVRITSEEAGKWFIEWIRRFL [A2D] | 3.4 kcal/mol |
| DIEELIELVERALKEGREIILLGVRITSEEAGKWFIEWIRRFL [A2I] | 4.2 kcal/mol |
| DTEELIELVERALKEGREIILLGVRITSEEAGKWFIEWIRRFL [A2T] | 3.62 kcal/mol |
| DSEELIELVERALKEGREIILLGVRITSEEAGKWFIEWIRRFL [A2S] | 3.42 kcal/mol |
| DAEELIELVERALKEGREIILLGDRITSEEAGKWFIEWIRRFL [V24D] | 2.71 kcal/mol |
| DAEELIELVERALKEGREIILLGVRITSEEAGKWFKEWIRRFL [I36K] | 3.26 kcal/mol |
| DAEELIELVERALKEGREIILLGVRITSEEAGKWFDEWIRRFL [I36D] | 3.04 kcal/mol |
| DAEELIELVERALKEGREIILLGVRITSEPAGKWFIEWIRRFL [E30P] | 3.54 kcal/mol |

| Variant | folding stability dG |
| --- | --- |
| DAEELIELVERALKEGREIILLGVRITSEGAGKWFIEWIRRFL [E30G] | 3.64 kcal/mol |
| DAEELIELVERALKEGREIILLGVRDTSEEAGKWFIEWIRRFL [I26D] | 2.97 kcal/mol |
| DAEELIELVERALKEGREIILLGVRATSEEAGKWFIEWIRRFL [I26A] | 3.34 kcal/mol |
| DAEELIELVERALKEGREIILLGVRLTSEEAGKWFIEWIRRFL [I26L] | 3.37 kcal/mol |
| DAEELIELVERALKEGREIILLGVRITSEEAGKWFIEWIRRFK [L43K] | 3.09 kcal/mol |
| DAEELIELVERALKEGREIILLGVRITSEEAGKWFIEWIRRFY [L43Y] | 3.81 kcal/mol |
| DAEELIELVERALKEGREIILLGVRITSEEAGKWFIEWIRRFG [L43G] | 3.03 kcal/mol |
| DAEELIELVERALKEGREIILLGVRITSEEAGKWFIEWIRRFI [L43I] | 3.61 kcal/mol |
| DAEELIELVERALKEGREIILLGVRITSEEAGKWFIEWIRRFV [L43V] | 3.48 kcal/mol |
| DAEELIELVERALKEGREIILLGVRITSEEAGKWFIEWIRRVL [F42V] | 3.58 kcal/mol |
| DAEELIELVERALKEGREIILGGVRITSEEAGKWFIEWIRRFL [L22G] | 3.01 kcal/mol |
| DAEELIELVERALKEGREIILYGVRITSEEAGKWFIEWIRRFL [L22Y] | 3.22 kcal/mol |
| DAEELIELVERALKEGREIILIGVRITSEEAGKWFIEWIRRFL [L22I] | 3.56 kcal/mol |
| DAEELIELVERALKEGREIILTGVRITSEEAGKWFIEWIRRFL [L22T] | 3.08 kcal/mol |
| DAEELIELVERALKEGREIILNGVRITSEEAGKWFIEWIRRFL [L22N] | 3.05 kcal/mol |
| DAGELIELVERALKEGREIILLGVRITSEEAGKWFIEWIRRFL [E3G] | 3.69 kcal/mol |
| DAPELIELVERALKEGREIILLGVRITSEEAGKWFIEWIRRFL [E3P] | 3.46 kcal/mol |
| DATELIELVERALKEGREIILLGVRITSEEAGKWFIEWIRRFL [E3T] | 3.83 kcal/mol |
| DAEELIELEERALKEGREIILLGVRITSEEAGKWFIEWIRRFL [V9E] | 2.87 kcal/mol |
